Experimental data reported in patent publication US20260306676A1, “FLUORESCEIN-LABELED NERVE TARGETING PEPTIDE FORMULATIONS AND RELATED METHODS” (ALUME BIOSCIENCES, INC., priority 2023, published 2026).
Counter-ions that a name gives are not always drawn.

Experiments:
[1] = Thermogravimetric analysis of purified ALM-488 chloride salt; type: physicochemical
[2] = Karl Fisher water content of purified ALM-488 chloride salt; type: physicochemical; conditions: oven 100° C.
Procedure: Karl Fisher titration was carried out on the chloride salt of ALM-488 using a Mettler Toledo Stromboli automatic oven sample changer. The instrument was standardized with a Hydranal® Water standard (Fluka). The solid ALM-488 sample was weighed into a sample vial and was heated to 100° C. in the oven, and the water vaporized from the sample was transferred to the titrator cell by purge gas.

[3] = pH-moderated solubility (NaOH titration) of ALM-488 salts; type: physicochemical
Procedure: A titration experiment was carried out using the ALM-488, HCl salt to determine if a nominal 40-50 mg/mL or higher solubility could be retained as pH is increased by gradual addition of NaOH. […] At solution pH values <4 the peptide remained in solution at concentrations >50 mg/mL. Above pH 4, the peptide precipitated. […] Dilution of the mixture due to base addition decreased the peptide concentration to ~47 mg/mL at pH values >7.
FIG. 8 is an overlay of the titration curves for ALM-488 hydrochloride and the ALM-488 acetate.

[4] = Influence of storage temperature on stability of ALM-488 solution (HPLC); type: physicochemical; conditions: 50 mg/mL in sterile water for injection
Procedure: To evaluate whether the ALM-488, HCl salt can be supplied in the form of a concentrated frozen solution, 50 mg/mL solutions of the HCl salt were prepared in water and evaluated for storage stability at different temperatures. The solutions having pH of 1.87 were prepared in sterile water for injection, and these solutions were stored at different storage temperatures (−20° C., 5° C. and 40° C.) and were analyzed using the HPLC method of Table 3 at different time periods.

[5] = Effect of organic amine compounds on solubility of ALM-488 (pH titration)
Procedure: To assess formulations that could be used to prepare ~50 mg/vial samples of ALM-488, and samples having an ALM-488 concentration of ~50 mg/mL, formulations having different organic amine compounds were studied. Each of these samples included (i) ALM-488 hydrochloride, (ii) a suitable base appropriate for a freeze-dried formulation (to adjust solution pH to optimal 7-8, as described in Examples 4 and 5), and (iii) at least one organic amine compound functioning as a pH-adjusting agent, bulking agent and/or a tonicity-adjusting agent. […] 55-60 mg/mL solutions of ALM-488 (pH 1.8-1.9) were titrated by gradual addition of 750 mM arginine, 1 M Tris, or 1 M meglumine.

Compound: CC(C)[C@H](NC(=O)[C@H](Cc1ccc(O)cc1)NCCCCC(=O)[C@H](Cc1ccc(O)cc1)NC(=O)[C@@H]1CCCN1C(=O)[C@H](CCC(=O)O)NC(=O)[C@H](CCC(=O)O)NC(=O)[C@H](Cc1c[nH]c2ccccc12)NC(=O)[C@@H]1CCCN1C(=O)[C@@H](NC(=O)[C@H](CCC(N)=O)NC(=O)c1ccc2c(c1)C(=O)OC21c2ccc(O)cc2Oc2cc(O)ccc21)C(C)C)C(=O)N[C@H](C(=O)N[C@@H](CCCCN)C(=O)N[C@@H](CCCCN)C(=O)N[C@@H](CO)C(=O)N[C@@H](CO)C(=O)NCC(=O)NCC(N)=O)C(C)C [ALM-488, HCl salt]
- onset of steep decrease in weight, presumably degradation ([1]; TGA): 200-250 °C
- weight loss by TGA ([1]; heated to 100° C.): 3.96%
- water content [2]: 4.08%
- pH of resistance to pH change upon base addition (may coincide with pKa of glutamic acid and 5-FAM), first ([3]; NaOH titration): ~ 4.5
- pH of resistance to pH change upon base addition (may coincide with pKa of glutamic acid and 5-FAM), second ([3]; NaOH titration): ~ 6.5
- precipitation ([3]; above pH 4, NaOH titration): precipitated
- initial pH of mixture ([3]; before NaOH, acetate mixture ~50 mg/mL, listed as ALM-488 hydrochloride): ~ 1.8
- dissolution ([3]; pH >7, NaOH titration): complete dissolution
- peptide concentration in solution ([3]; pH >7, after dilution by base addition): ~ 47 mg/mL
- appearance ([3]; pH ~4.5 to 5.5, NaOH titration): opaque dispersion
- appearance ([3]; pH ~6.5, NaOH titration): clarification of the mixture
- solubility ([3]; water with naoh, pH <4, NaOH titration, read-out: concentration remaining in solution): > 50 mg/mL
- solubility ([3]; water, visual assessment, solution pH <2, read-out: solubility): > 180 mg/mL
- solution pH ([3]; ~55 mg/mL in water, start of titration): 1.7
- solution pH [4]: 1.87
- Calculated total ALM-488 peptide concentration ([5]; 107 mM tris (pH 7.3)): 49.2 mg/mL
- Calculated total ALM-488 peptide concentration ([5]; 116 mM arginine (pH 7.61)): 51.7 mg/mL
- solubility ([5]; l-arginine titration): < 50 mg/mL
- solubility ([5]; meglumine titration): < 50 mg/mL
- solution pH ([5]; meglumine titration end (printed 107 mm tris)): 7.88
- Calculated total ALM-488 peptide concentration ([5]; meglumine titration, pH 7.88): 49.2 mg/mL
- solution pH ([5]; no L-arginine added): 1.86
- Calculated total ALM-488 peptide concentration ([5]; no L-arginine added (pH 1.86)): 55 mg/mL
- solution pH ([5]; no Tris added): 1.89
- Calculated total ALM-488 peptide concentration ([5]; no Tris added (pH 1.89)): 55 mg/mL
- solution pH ([5]; no meglumine added): 1.86
- Calculated total ALM-488 peptide concentration ([5]; no meglumine added (pH 1.86)): 55 mg/mL
- solubility ([5]; tromethamine (tris) titration): < 50 mg/mL
- solution pH ([5]; with 107 mM tris): 7.3
- solution pH ([5]; with 116 mM arginine): 7.61
